Laboratory results: patent US20240189423A1 (University of California, published 2024)

What was measured:
mouse CXCR7 = target: T1, mouse CXCR7 (mouse, UniProt P56485 1-362); assay: flow cytometry on MC38 and CT26 mouse cells
T1 construct: whole, on cells; also called mouse CXCR7 receptors

CXCR7 = target: T2, CXCR7 (human (endogenous on a human cancer …, UniProt P25106 1-362)); assay: flow cytometry on MDA-MB-231 cells known to express CXCR4 and CXCR7
T2 construct: whole, on cells; also called ACKR3

CXCR4 = target: T3, CXCR4 (human (endogenous on a human cancer …, UniProt P61073 1-352)); assay: as above
T3 construct: whole, on cells

VEGF-647 = VEGF-647 (UniProt P15692-4 27-191, biotinylated, pre-incubated with streptavidin-647); assay: cell-based or functional assay
Chain of VEGF-647 (P15692 other isoform, or with tags, fused parts or gaps limits assumed): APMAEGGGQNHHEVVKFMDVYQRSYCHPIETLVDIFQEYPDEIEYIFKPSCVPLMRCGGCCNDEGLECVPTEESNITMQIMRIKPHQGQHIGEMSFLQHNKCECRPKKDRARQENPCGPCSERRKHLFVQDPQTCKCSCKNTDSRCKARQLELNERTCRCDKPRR

T2 sequence (P25106 whole entry): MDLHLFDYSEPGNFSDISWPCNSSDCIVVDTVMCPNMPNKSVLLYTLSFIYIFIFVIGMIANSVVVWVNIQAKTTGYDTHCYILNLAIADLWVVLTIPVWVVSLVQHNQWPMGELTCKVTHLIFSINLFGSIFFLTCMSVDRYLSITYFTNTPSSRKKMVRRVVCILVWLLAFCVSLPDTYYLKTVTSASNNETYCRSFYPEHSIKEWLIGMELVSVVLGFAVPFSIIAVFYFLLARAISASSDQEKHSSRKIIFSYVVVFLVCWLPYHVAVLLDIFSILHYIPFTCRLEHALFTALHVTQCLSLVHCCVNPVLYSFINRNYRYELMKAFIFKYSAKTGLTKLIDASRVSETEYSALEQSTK
T1 sequence (P56485 whole entry): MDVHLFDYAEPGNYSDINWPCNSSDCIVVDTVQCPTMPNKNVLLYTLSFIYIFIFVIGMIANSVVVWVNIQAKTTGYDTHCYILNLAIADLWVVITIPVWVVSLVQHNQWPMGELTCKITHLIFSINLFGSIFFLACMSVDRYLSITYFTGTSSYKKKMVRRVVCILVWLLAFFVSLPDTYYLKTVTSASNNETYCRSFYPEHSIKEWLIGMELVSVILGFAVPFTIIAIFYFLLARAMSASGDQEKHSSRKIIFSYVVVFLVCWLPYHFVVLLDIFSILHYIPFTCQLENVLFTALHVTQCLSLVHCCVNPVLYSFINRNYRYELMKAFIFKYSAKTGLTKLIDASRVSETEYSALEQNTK
T3 sequence (P61073 whole entry): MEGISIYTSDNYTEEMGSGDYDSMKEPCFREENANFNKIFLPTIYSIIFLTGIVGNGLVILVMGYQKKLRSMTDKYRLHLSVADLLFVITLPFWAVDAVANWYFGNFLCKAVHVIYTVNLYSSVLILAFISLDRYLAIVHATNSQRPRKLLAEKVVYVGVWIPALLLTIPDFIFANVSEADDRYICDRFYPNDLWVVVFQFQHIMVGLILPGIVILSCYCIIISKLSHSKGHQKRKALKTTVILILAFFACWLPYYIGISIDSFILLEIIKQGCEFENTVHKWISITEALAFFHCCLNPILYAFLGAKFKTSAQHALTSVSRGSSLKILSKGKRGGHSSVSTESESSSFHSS

Binder | binding result (mouse CXCR7) | binding result (CXCR7) | binding result (CXCR4) | fold increase in cellular fluorescence (VEGF-647 uptake), flow cytometry, HeLa cells, 24 hr (VEGF-647)
CXCL12-Isotype (bispecific antibody, human IgG1, kappa, N297G, also called human CXCL12 isotype; isotype control of the CXCL12 bispecific) not shown heavy: not shown light: DIQMTQSPSSLSASVGDRVTITCRASQSVGSALAWYQQKPGKAPKLLIYSASSLYSGVPSRFSGSRSGTDFTLTISSLQPEDFATYYCQQSSYHHPITFGQGTKVEIKRTVAAPSVFIFPPSDSQLKSGTASVVCLLNNFYPREAKVQWKVDNALQSGNSQESVTEQDSKDSTYSLSSTLTLSKADYEKHKVYACEVTHQGLSSPVTKSF | binds | binds | binds | –
CXCL12-Bevacizumab (bispecific antibody, human IgG1, N297G) not shown heavy: not shown light: not shown | – | – | – | 32 fold
